Measured values reported in US20210122788A1 (published 2021).
Like-named read-outs stand apart in the source and are kept apart here.

Key:
Test in all cases: FACS binding to EL4 cells
[1] = target: T1, human BTLA, wild-type, on cells (human, UniProt Q7Z6A9 31-289)
[2] = target: T2, human CD160 on cells (human, UniProt O95971 25-159)
T2 chain: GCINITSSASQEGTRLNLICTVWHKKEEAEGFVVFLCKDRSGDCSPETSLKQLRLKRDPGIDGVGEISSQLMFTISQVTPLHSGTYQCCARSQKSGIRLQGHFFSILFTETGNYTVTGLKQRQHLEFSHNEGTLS

[3] = target: T1, human BTLA, wild-type, on cells; remark: listed apart in the source
[4] = target: T2, human CD160 on cells

B1: human HVEM Fc (Fc fusion)
chain: LPSCKEDEYPVGSECCPKCSPGYRVKEACGELTGTVCEPCPPGTYIAHLNGLSKCLQCQMCDPAMGLRASRNCSRTENAVCGCSPGHFCIVQDGDHCAACRAYATSSPGQRVQKGGTESQDTLCQNCPPGTFSPNGTLEECQHQTKCSWLVTKAGAGTSSSHWV
EC50 [1]: 8.7 µg/mL | EC50 [2]: 5.1 µg/mL | EC50 [3]: 8.7 µg/mL | EC50 [4]: 5.1 µg/mL
